Test results as given in the RNAGym collection of RNA variant scans (doi:10.1021/acssynbio.7b00057).

B1: Pistol ribozyme (parent)
chain: GGGUCGUUGUUCCAUAAUCGCGUGGAUAUGGCACGCAAGUUUCUACCGGGCACCGUAAAUGUCCGACUGGAGCCGUUCGGGCGGCUAUAAACAGACCUCAGGCCCGAAGCGUGGCGGCACCUGCCGCCGGUGGUAAAAAAGAUCGGAAGAGCACACGUCU

Variants of: B1
Assay: aptazyme ON/OFF ratio, guanine; higher = stronger switching; co-transcriptional cleavage with and without guanine

Variant | aptazyme ON/OFF ratio
U7G U8G G9A U10C U11C C12G C13A | 1.16
U7G U8G G9A U10C U11C C12G C13U | 1.12
U7G U8G G9A U10C U11C C12G C13G | 1.03
U7G U8C U11G C13A | 1.29
U7G U8C U11G C13G | 1.2
U7G U8C U11G C13U | 1.17
U7G U8G G9A U10C U11G C12A | 1.15
U7G U8G G9A U10C U11G C12G | 1.53
U7G U8G G9A U10C U11G C12U | 1.34
U7G U8G G9A U10C U11C C12A C13A | 1.19
U7G U8G G9A U10C U11C C12A C13G | 1.2
U7G U8G G9A U10C U11C C12A C13U | 1.11
U7G U8G G9A U10A U11C C12U C13U | 1.15
U7G U8G G9A U10A U11C C12U C13G | 1.17
U7G U8G G9A U10A U11C C12U C13A | 1.08
U7G U8G G9A U10C U11A C12U | 1.18
U7G U8G G9A U10C U11A C12A | 1.34
U7G U8G G9A U10C U11A C12G | 1.21
U7G U8C U10C C12A C13U | 1.24
U7G U8C U10C C12A C13G | 1.16
U7G U8C U10G U11C C12U C13G | 1.23
U7G U8C U10G U11C C12U C13A | 1.4
U7G U8C U10G U11C C12U C13U | 1.47
U7G U8C U10C C12U C13A | 1.15

Variant | aptazyme ON/OFF ratio
U7G U8C U10C C12U C13U | 1.27
U7G U8C U10C C12U C13G | 1.19
U7G U8C U11A C12A C13A | 1.23
U7G U8C U11A C12A C13G | 1.1
U7G U8C U11A C12A C13U | 1.25
U7G U8C U10G C13U | 1.24
U7G U8C U10G C13A | 1.24
U7G U8C U10G C13G | 1.22
U7G U8C U11G C12G | 1.22
U7G U8C U11G C12A | 1.14
U7G U8C U11G C12U | 1.28
U7G U8C U10C U11A C12G C13A | 1.13
U7G U8C U10C U11A C12G C13G | 1.21
U7G U8C U10C U11A C12G C13U | 1.2
U7G U8G G9A C12A | 1.41
U7G U8G G9A C12U | 1.68
U7G U8G G9A C12G | 1.59
U7G U8G | 1.29
U7G U8G G9A U10C C12U C13G | 1.18
U7G U8G G9A U10C C12U C13A | 1.11
U7G U8G G9A U10C C12U C13U | 1.29
U7G U8C U11G C12G C13A | 1.11
U7G U8C U11G C12G C13G | 1.11
U7G U8C U11G C12G C13U | 1.12

Variant | aptazyme ON/OFF ratio
U7G U8G G9A C12A C13G | 1.11
U7G U8G G9A C12A C13A | 1.32
U7G U8G G9A C12A C13U | 1.49
U7G U8G G9A U10A C12G C13A | 1.1
U7G U8G G9A U10A C12G C13U | 1.22
U7G U8G G9A U10A C12G C13G | 1.18
U7G U8G G9A U10C U11G C12U C13G | 1.16
U7G U8G G9A U10C U11G C12U C13U | 1.38
U7G U8G G9A U10C U11G C12U C13A | 1.27
U7G U8G G9A U10A C12U | 1.52
U7G U8G G9A U10A C12G | 1.5
U7G U8G G9A U10A C12A | 1.46
U7G U8C U10C U11C C12A C13G | 1.33
U7G U8C U10C U11C C12A C13A | 1.27
U7G U8C U10C U11C C12A C13U | 1.2
U7G U8C U10G U11C C12A C13G | 1.17
U7G U8C U10G U11C C12A C13U | 1.33
U7G U8C U10G U11C C12A C13A | 1.38
U7G U8G C12G C13A | 1.4
U7G U8G C12G C13G | 1.36
U7G U8G C12G C13U | 1.37
U7G U8G G9A U10A | 2.16
U7G U8G G9A U10C | 3.59
U7G U8G G9A U10G | 1.83

Variant | aptazyme ON/OFF ratio
U7G U8G G9A U10C U11C C12A | 1.22
U7G U8G G9A U10C U11C C12G | 1.21
U7G U8G G9A U10C U11C C12U | 1.1
U7G U8C U10G U11G C12G C13A | 1.18
U7G U8C U10G U11G C12G C13U | 1.4
U7G U8C U10G U11G C12G C13G | 1.08
U7G U8G G9A U10C U11C C13A | 0.99
U7G U8G G9A U10C U11C C13U | 1.01
U7G U8G G9A U10C U11C C13G | 0.991
U7G U8G G9A U10A U11A C12A C13A | 1.11
U7G U8G G9A U10A U11A C12A C13U | 1.38
U7G U8G G9A U10A U11A C12A C13G | 1.07
U7G U8G G9A U10C U11G C13A | 1.27
U7G U8G G9A U10C U11G C13U | 1.19
U7G U8G G9A U10C U11G C13G | 1.28
U7G U8C U10G U11A C13A | 1.16
U7G U8C U10G U11A C13U | 1.19
U7G U8C U10G U11A C13G | 1.13
U7G U8G G9A U10A U11G C12A C13A | 1.13
U7G U8G G9A U10A U11G C12A C13U | 1.1
U7G U8G G9A U10A U11G C12A C13G | 1.03
U7G U8C U11A C12G | 1.12
U7G U8C U11A C12A | 1.37
U7G U8C U11A C12U | 1.31

Variant | aptazyme ON/OFF ratio
U7G U8G G9A U10C U11G C12A C13U | 1.19
U7G U8G G9A U10C U11G C12A C13G | 1.14
U7G U8G G9A U10C U11G C12A C13A | 1.11
U7G U8C U10C U11C C13U | 1.07
U7G U8C U10C U11C C13A | 1.04
U7G U8C U10C U11C C13G | 1.04
U7G U8C U10G U11A C12A | 1.15
U7G U8C U10G U11A C12U | 1.22
U7G U8C U10G U11A C12G | 1.13
U7G U8G G9A U10A U11G C12G C13G | 1.15
U7G U8G G9A U10A U11G C12G C13U | 1.06
U7G U8G G9A U10A U11G C12G C13A | 1.14
U7G U8G G9A U10A U11G C12G | 1.43
U7G U8G G9A U10A U11G C12U | 1.22
U7G U8G G9A U10A U11G C12A | 1.07
U7G U8C U11C C13A | 1.3
U7G U8C U11C C13U | 1.32
U7G U8C U11C C13G | 1.07
U7G U8C U10G U11G C12A | 1.18
U7G U8C U10G U11G C12U | 1.43
U7G U8C U10G U11G C12G | 1.22
U7G U8C U10G U11C C12A | 1.57
U7G U8C U10G U11C C12U | 1.34
U7G U8C U10G U11C C12G | 2.08

Variant | aptazyme ON/OFF ratio
U7G U8G G9A U10A U11A C12U C13U | 1.24
U7G U8G G9A U10A U11A C12U C13G | 1.13
U7G U8G G9A U10A U11A C12U C13A | 1.03
U7G U8C U10C U11A C12U C13G | 1.08
U7G U8C U10C U11A C12U C13A | 1.12
U7G U8C U10C U11A C12U C13U | 1.04
U7G U8C U10G U11G | 1.31
U7G U8C U10G U11C | 2.14
U7G U8C U10G U11A | 1.21
U7G U8G G9A U10A U11A C13A | 1.16
U7G U8G G9A U10A U11A C13U | 1.18
U7G U8G G9A U10A U11A C13G | 1.14
U7G U8G G9A U10C U11A C13U | 1.2
U7G U8G G9A U10C U11A C13A | 1.2
U7G U8G G9A U10C U11A C13G | 1.1
U7G U8G G9A U10C U11A C12A C13A | 1.2
U7G U8G G9A U10C U11A C12A C13G | 1.15
U7G U8G G9A U10C U11A C12A C13U | 1.25
U7G U8G C12A C13G | 1.22
U7G U8G C12A C13A | 1.31
U7G U8G C12A C13U | 1.57
U7G U8C U10G | 1.31
U7G U8C U10G U11A C12A C13U | 1.12
U7G U8C U10G U11A C12A C13A | 1.11

Variant | aptazyme ON/OFF ratio
U7G U8C U10G U11A C12A C13G | 1.1
U7G U8C U10C C12G | 1.37
U7G U8C U10C C12U | 3.24
U7G U8G C12G | 1.38
U7G U8G C12U | 1.21
U7G U8G C12A | 1.25
U7G U8C U11C C12A | 1.69
U7G U8C U11C C12U | 1.57
U7G U8C U11C C12G | 1.38
U7G U8C U11G C12A C13G | 1.15
U7G U8C U11G C12A C13U | 1.19
U7G U8C U11G C12A C13A | 1.13
U7G U8G C13U | 1.7
U7G U8G C13G | 1.42
U7G U8G C13A | 1.4
U7G U8C U11A C13A | 1.14
U7G U8C U11A C13U | 1.32
U7G U8C U11A C13G | 1.03
U7G U8C U11C C12G C13G | 1.11
U7G U8C U11C C12G C13U | 1.46
U7G U8C U11C C12G C13A | 1.32
U7G U8C U11C C12U C13G | 1.3
U7G U8C U11C C12U C13A | 1.34
